Reference: PMC10998906 (NPJ Vaccines, 2024)

Target: HA (NL03, A/Netherlands/213/2003(H3N2)) (Influenza A virus …, strain)
Test: negative-stain EM
Details: both partners purified

B1: CR9114 Fab (Fab, V domains shown)
VH: QVQLVQSGAEVKKPGSSVKVSCKSSGGTSNNYAISWVRQAPGQGLDWMGGISPIFGSTAYAQKFQGRVTISADIFSNTAYMELNSLTSEDTAVYFCARHGNYYYYSGMDVWGQGTTVTVSS
VL: QSALTQPPAVSGTPGQRVTISCSGSDSNIGRRSVNWYQQFPGTAPKLLIYSNDQRPSVVPDRFSGSKSGTSASLAISGLQSEDEAEYYCAAWDDSLKGAVFGGGTQLTVL
- stoichiometry N: 1 Fab per particle
